The assay has as its target BF520 Env 637K (HIV-1).

PGT151 (antibody) returned a maximum percent neutralization, TZM-bl pseudovirus neutralization by PGT151 of 59%.
